Read-outs that look alike come from different tables or passages of the source.
What was measured:
Jurkat cells [1] = assay type: cell-based, human; details: 16 hr
CdtB = assay: Effect of phosphatase inhibitors on CdtB-mediated hydrolysis of PI-3,4,5-P3; assay type: biochemical, A. actinomycetemcomitans; details: for reduction of CdtB phosphatase activity: 0.5 μM CdtB, 30 min
Experimental: CdtB (0.5 μM; triangles) and PTEN (0.1 μM; circles) were incubated with liposomes containing PI-3,4,5-P3 in the presence of varying concentrations of tungstate or orthovanadate for 30 min. Phosphate release was measured using the malachite green binding assay. Results are plotted as phosphate release (nmol/30 min; mean±S.D.) versus inhibitor concentration (mM);
(§1) Phosphatase activity was assessed by monitoring the dephosphorylation of PI-3,4,5-P3 as described by Maehama et al [Maehama, T., G. Taylor, J. Slama, and J. Dixon. 2000. A sensitive assay for phosphoinositide phosphatases. Analytical Biochemistry 279:248-2501. Briefly, the reaction mixture (20 μl) consisted of 100 mM Tris-HCl (pH 8.0), 10 mM dithiothreitol, 0.5 mM diC16-phosphatidylserine (Avanti), 25 μM PI-3,4,5-P3 (diC16; Echelon) and the indicated amount of CdtB, CdtABC or PTEN (kindly provided by Gregory Taylor). Appropriate amounts of lipid solutions were deposited in 1.5 ml tubes, organic solvent removed, the buffer added and a lipid suspension formed by sonication. For experiments to determine substrate specificity, PI-3,4,5-P3 was replaced by the indicated phosphatidylinositol phosphate (Echelon). Phosphatase assays were carried out at 37° C. for 30 min; the reactions were terminated by the addition of 15 μl of 100 mM N-ethylmaleimide. Inorganic phosphate levels were then measured using a malachite green assay. Malachite green solution (Biomol Green; Biomol) was added to 100 μl of the enzyme reaction mixture and color was developed for 20 min at RT. Absorbance at 650 nm was measured and phosphate release quantified by comparison to inorganic phosphate standards.

[2] = Substrate specificity with phosphoinositides in liposomes; assay type: biochemical; details: 0.5 μM CdtB, 0.1 μM PTEN; 30 min; liposomes with phosphatidylserine carrier; FIG. 3
Experimental: as §1, with “Malachite green solution (Biomol Green; Biomol) was added to 100 μl of the enzyme reaction mixture and color was developed for 20 min at RT.” left out
CdtB substrate specificity was assessed using several different phosphoinositides (PI). […] In order to determine whether CdtB is a 3- or 5-phosphatase, product formation was assessed using thin layer chromatography. […]

[3] = TLC analysis of product formation after PI-3,4,5-P3 hydrolysis; assay type: biochemical; details: 0.5 μM CdtB or 0.1 μM PTEN, FIG. 3 inset
Description: Analysis of CdtB-Mediated Product Formation
Inositol lipids were separated by thin layer chromatography. Silica gel G plates were dipped in boric acid (5% in methanol) and then dried. They were then spotted with the lipid samples dissolved in chloroform/methanol/water (1/2/0.1) together with solutions containing the standard inositol lipids phosphatidyl 4,5 bisphosphate, phosphatidyl 3,4 bisphosphate, phosphatidyl 3,5bis phosphate, phosphatidyl 3,4,5 trisphosphate, and phosphatidyl inositol. The plates were eluted with solutions containing propyl acetate/isopropanol/ethanol/ammonia/water (15/45/16/9/35), dried, and sprayed with solution containing CuSO4/H3PO4 (8%/10%), and air dried again. Plates were then heated to 70° C. then to 155° C. to visualize the lipids.

[4] = assay type: biochemical
Jurkat cells [5] = assay type: cell-based, human
supercoiled pUC19 DNA = assay type: biochemical
[6] = Dephosphorylation of inositol phosphates; assay type: biochemical
[7] = Protein phosphatase activity with synthetic substrate; assay type: biochemical; details: synthetic substrate pNPP
[8] = 30 min, read-out: ED0.5 [concentration required to catalyze 0.5 nmol phosphate release]

Molecule: COC[C@H]1OC(=O)c2coc3c2[C@@]1(C)C1=C(C3=O)[C@@H]2CCC(=O)[C@@]2(C)C[C@H]1OC(C)=O [wortmannin]
- Cdt-induced accumulation of G2 cells after pre-treatment (Jurkat cells [1]): 35%

Molecule: [O]=[V]([O-])([O-])[O-] [orthovanadate]
- reduction of CdtB phosphatase activity (CdtB; 1 mM inhibitor): 10%
- reduction of CdtB phosphatase activity (CdtB; 10 mM inhibitor): 85%

Molecule: O=c1cc(N2CCOCC2)oc2c(-c3ccccc3)cccc12 [LY290004]
- Cdt-induced accumulation of G2 cells after pre-treatment (Jurkat cells [1]): 22.0%

Molecule: [O]=[W](=[O])([O-])[O-] [tungstate]
- reduction of CdtB phosphatase activity (CdtB; 1 mM inhibitor): 15%
- reduction of CdtB phosphatase activity (CdtB; 10 mM inhibitor): 70%

Molecule: PTEN: Tumor suppressor phosphatase (phosphatase and tensin homolog deleted on chromosome ten), used for comparison [reference compound]
- substrate specificity (phosphate release with phosphatidylinositol phosphates) [2]: substrate specificity for PI-(3,4,5)-P3 identical to CdtB
- product formed from PI-3,4,5-P3 [3]: PI-(4,5)-P2
- Km [4]: 159 µM
- EC50 [4, 8]: 50 nM

Molecule: [O]=[Mo](=[O])([O-])[O-] [molybdate]
- inhibition of CdtB (in words) (CdtB): failed to inhibit

B1: CdtB: Active B subunit of cytolethal distending toxin, SEQ ID NO: 3, expressed from pGEMCdtB (protein)
chain: NLSDFKVATWNLQGSSAVNESKWNINVRQLLSGEQGADILMVQEAGSLPSSAVRTSRVIQHGGTPIEEYTWNLGTRSRPNMVYIYYSRLDVGANRVNLAIVSRRQADEAFIVHSDSSVLQSRPAVGIRIGTDVFFTVHALATGGSDAVSLIRNIFTTFTSSPSSPERRGYSWMVVGDFNRAPVNLEAALRQEPAVSENTIIIAPTEPTHRSGNILDYAILHDAHLPRREQARERIGASLMLNQLRSQITSDHFPVSFVRDR
modifications: Actinobacillus actinomycetemcomitans
- toxicity (G2 cell cycle arrest), dose response (Jurkat cells [5]): comparable activity
- percentage of G2 cells (Jurkat cells [5]; 18 hrs): 54.8%
- DNase Activity (% CdtB^wt) (supercoiled pUC19 DNA): 100 % CdtB^wt
- DNase activity (in words) (supercoiled pUC19 DNA; 2 hrs at 37° C.): detectable nuclease activity although it was less than five orders of magnitude of that observed with bovine DNase I
- dephosphorylation of inositol triphosphate or inositol tetrakisphosphate [6]: unable to dephosphorylate
- substrate specificity (phosphate release with phosphatidylinositol phosphates) [2]: only occurred in the presence of PI-3,4,5-P3
- protein phosphatase activity [7]: did not exhibit detectable protein phosphatase activity
- product formed from PI-3,4,5-P3 [3]: PI-(3,4)-P2
- Km [4]: 124 µM
- PIP3 phosphatase activity (% CdtB^wt) [4]: 100 % CdtB^wt
- EC50 [4, 8]: 500 nM
- EC50 ([4]; read-out: ED0.5): 300 nM
